According to PMC7896056:

Experiments:
[1] = target: SIRT1 (183–510+GS+641–665) (human) (UniProt Q96EB6); experiment: ITC; Ac-p53 peptide (500 μM) titrated into 10 μM SIRT1 (183–510+GS+641–665), no activator; 25 °C; 20 mM HEPES pH 7.4, 150 mM NaCl, 0.5% ethanol; one-site model
[2] = target: SIRT1 (183–510+GS+641–665) (human) (UniProt Q96EB6); experiment: ITC; Ac-p53 peptide (500 μM) titrated into 10 μM SIRT1 (183–510+GS+641–665) in the presence of 0.2 mM KPMF-8; 25 °C; 20 mM HEPES pH 7.4, 150 mM NaCl, 0.5% ethanol; one-site model
[3] = target: SIRT1 (183–510+GS+641–665) (human) (UniProt Q96EB6); experiment: ITC; Ac-p53 peptide (500 μM) titrated into 10 μM SIRT1 (183–510+GS+641–665) in the presence of 0.2 mM resveratrol; 25 °C; 20 mM HEPES pH 7.4, 150 mM NaCl, 0.5% ethanol; one-site model

UniProt Q96EB6, sequence (Q96EB6 other isoform, or with tags, fused parts or gaps): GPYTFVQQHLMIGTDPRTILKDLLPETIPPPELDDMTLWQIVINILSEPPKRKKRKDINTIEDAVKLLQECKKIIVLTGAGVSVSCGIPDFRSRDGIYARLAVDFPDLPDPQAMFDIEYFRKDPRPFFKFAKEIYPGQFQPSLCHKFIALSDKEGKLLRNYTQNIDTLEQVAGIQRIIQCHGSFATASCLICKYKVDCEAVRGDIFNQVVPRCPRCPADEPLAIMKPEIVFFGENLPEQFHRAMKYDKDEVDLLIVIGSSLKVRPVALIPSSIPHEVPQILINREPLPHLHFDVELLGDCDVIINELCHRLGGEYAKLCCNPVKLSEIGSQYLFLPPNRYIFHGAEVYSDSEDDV

Substance: native Ac-p53 peptide
- Kd [1]: 55 µM
- Kd [2]: 6.67 µM
- Kd [3]: 38.8 µM
